Data reported in the PETadex activity labels (doi:10.1042/bj20021862).
Residue numbers refer to the chain shown, from its start.

B1: unnamed (protein)
chain: MRPPWYPLHTPSLAFPLLFLLLSLLGGGARAEGREDPQLLVRVRGGQLRGIRLKAPGGPVSAFLGIPFAEPPVGSRRFMPPEPKRPWSGVLDATTFQNVCYQYVDTLYPGFEGTEMWNPNRELSEDCLYLNVWTPYPRPASPTPVLIWIYGGGFYSGAASLDVYDGRFLAQVEGAVLVSMNYRVGTFGFLALPGSREAPGNVGLLDQRLALQWVQENIAAFGGDPMSVTLFGESAGAASVGMHILSLPSRSLFHRAVLQSGTPNGPWATVSAGEARRRATLLARLVGCPPGGAGGNDTELIACLRTRPAQDLVDHEWHVLPQESILRISFVPVVDGDFLSDTPEALINTGDFQDLQVLVGVVKDEGSAFLVYGVPGFSKDNESLISRAQFLAGVRIGVPQASDLAAEAVVLHYTDWLHPEDPTHLRDAMSAVVGDHNVVCPVAQLAGRLAAQGARVYAYIFEHRASTLTWPLWMGVPHGYEIEFIFGLPLDPSLNYTTEERIFAQRLMKYWTNFARTGDPNDPRDSKSPQWPPYTTAAQQYVSLNLKPLEVRRGLRAQTCAFWNRFLPKLLSATDTLDEAERQWKAEFHRWSSYMVHWKNQFDHYSKQERCSDL
B2: unnamed (protein)
chain: B1 chain with L326F, I328F, A368Y
B3: unnamed (protein)
chain: B1 chain with I328A
B4: unnamed (protein)
chain: B1 chain with L326F
B5: unnamed (protein)
chain: B1 chain with L326A, I328F
B6: unnamed (protein)
chain: B1 chain with L326F, I328L
B7: unnamed (protein)
chain: B1 chain with I328F, F369A
B8: unnamed (protein)
chain: B1 chain with L326F, I328F, F369A
B9: unnamed (protein)
chain: B1 chain with E233Q, I328F

Substrate: Acetylcholine
Conditions: pH 7; 22 °C

Protein	Km	kcat	kcat/Km
B1	69 µM	250 s⁻¹	3.62e+06 M⁻¹ s⁻¹
B2	47 µM	2500 s⁻¹	5.32e+07 M⁻¹ s⁻¹
B3	190 µM	183 s⁻¹	965000 M⁻¹ s⁻¹
B4	340 µM	233 s⁻¹	686000 M⁻¹ s⁻¹
B5	76 µM	333 s⁻¹	4.39e+06 M⁻¹ s⁻¹
B6	100 µM	667 s⁻¹	6.67e+06 M⁻¹ s⁻¹
B7	150 µM	283 s⁻¹	1.89e+06 M⁻¹ s⁻¹
B8	150 µM	650 s⁻¹	4.33e+06 M⁻¹ s⁻¹
B9	100 µM	167 s⁻¹	1.67e+06 M⁻¹ s⁻¹
